Measured values reported in the supplement of paper PMC9732359.
± gives the uncertainty stated by the source.

Test: protein stability index of a GFP-peptide fusion (yeast GPS) (PSI 1-4); higher = more stable; sorted into four equal gates, so the index is relative within each strain
How it was run: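 Sequencing reads from sorted gates were used to score each peptide. The library consisted of tiled 17-residue yeast protein peptides fused downstream of GFP on a Cherry-expressing plasmid, pooled and carried in yeast. Mid-log cultures in leucine-free medium were split into four equal gates by GFP/Cherry ratio, and each gate's plasmids were PCR-amplified and Illumina-sequenced. The protein stability index adds up, over all gates, the read frequency multiplied by the gate number.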

Sequence | protein stability index (doa10∆) | protein stability index (pdr5∆) | protein stability index (san1∆) | protein stability index (ubr1∆)
YFKSILLNKNTGNNLYD [SWI1] | 2.59 ± 0.048 | 2.42 ± 0.036 | 2.04 ± 0.05 | 2.19 ± 0.031
SNESQNGKDSEIMYTGV [SMC3] | 3.46 ± 0.14 | 3.13 ± 0.27 | 3.03 ± 0.19 | –
SAYVKAFYQKGNKLVEL [SMC1] | 1.45 ± 0.074 | 1.99 ± 0.051 | 2.12 ± 0.097 | 1.58 ± 0.052
EKINRMIIFLKNYDATD [CSI1] | 2.52 ± 0.045 | 2.34 ± 0.044 | 2.38 ± 0.046 | 2.26 ± 0.028
DDDDYNAEKYFNNGDDD [RPC31] | 3.01 ± 0.12 | 3.13 ± 0.16 | 3.06 ± 0.082 | 3.19 ± 0.07
AQWERSKLSQEFLYPHL [SNF12] | 3.1 ± 0.088 | 3 ± 0.084 | 2.83 ± 0.071 | 3.08 ± 0.062
QKNFMDQFQWILRKPGK [RRI2] | 2.42 ± 0.14 | 2.66 ± 0.12 | 2.67 ± 0.15 | 2.49 ± 0.091
TNLSGGEKTLSSLALVF [SMC4] | 3.34 ± 0.083 | 3.2 ± 0.097 | 3.04 ± 0.25 | 3.37 ± 0.054
PGGQAALRALARSGLRI [RPS14A] | 2.15 ± 0.032 | 2.35 ± 0.029 | 2.21 ± 0.04 | 1.92 ± 0.022
RAVKEIKKFAKLHMGTE [RPL31B] | 2.95 ± 0.071 | 2.94 ± 0.13 | 3.08 ± 0.08 | 2.61 ± 0.086
KGALMYGPPGTGKTLLA [RPT5] | 2.18 ± 0.074 | 2.24 ± 0.069 | 2.3 ± 0.18 | 1.35 ± 0.11
MTTFRFCRDCNNMLYPR [RPB9] | 2.78 ± 0.14 | 3.14 ± 0.11 | 3.41 ± 0.14 | 2.99 ± 0.068
GQSAGKLAAIVEIIDQK [RPL14A] | 3.28 ± 0.098 | 3.29 ± 0.11 | 2.82 ± 0.11 | 3.41 ± 0.066
QALDISKKGKPTVNKKP [SRP72] | 2.59 ± 0.16 | 2.82 ± 0.1 | 2.36 ± 0.16 | 2.3 ± 0.14
ALVYSYIEASGREGIWS [RPC34] | 3.13 ± 0.24 | 2.87 ± 0.24 | 2.28 ± 0.17 | 2.52 ± 0.11
CKKKEMSQYQSTMKENK [YIL149C/MLP2] | 2.49 ± 0.088 | 2.76 ± 0.073 | 1.42 ± 0.23 | 2.55 ± 0.071
YNTNFNLLLRELNVEKL [SRP72] | 2.9 ± 0.091 | 3.18 ± 0.11 | 2.89 ± 0.089 | 3.26 ± 0.056
PYYKYLCEEYLVNNGQS [RPN7] | 2.86 ± 0.087 | 2.41 ± 0.091 | 2.61 ± 0.088 | 1.77 ± 0.067
EMNLHVPQSEETRAELS [RPO21] | 3.17 ± 0.2 | 3.31 ± 0.092 | 3.1 ± 0.1 | 3.15 ± 0.11
KNAAESSYMGKHWTEKS [PRP28] | 3.17 ± 0.12 | 3.24 ± 0.17 | – | 3.46 ± 0.11
KFLKIASLKHDNETKAM [RPN3] | 2.75 ± 0.1 | 3.16 ± 0.13 | 2.76 ± 0.1 | 3.17 ± 0.12
PKKEYDDDAVRREVQIQ [NSL1] | 1.4 ± 0.18 | 2.11 ± 0.25 | 1.36 ± 0.29 | 2.38 ± 0.21
CPYCYKKRREYFPEGYN [SIR2] | 2.43 ± 0.11 | 2.41 ± 0.16 | 2.61 ± 0.2 | 2.75 ± 0.069
SGVKNDILQSLSGGGHD [CDC53] | 3.09 ± 0.075 | 3.09 ± 0.077 | 2.71 ± 0.068 | 2.8 ± 0.048
KRYTSEGTRNRFSYSPP [YMR129W/POM152] | 3.09 ± 0.088 | 3.09 ± 0.063 | 2.92 ± 0.043 | 3.09 ± 0.043
FKNDFNSFYYTSLLYLS [RPN9] | 1.33 ± 0.049 | 1.81 ± 0.073 | 2.19 ± 0.11 | 1.25 ± 0.099
QVLKCKESWDPNTTKTK [YGR119C/NUP57] | 3.52 ± 0.21 | 3.41 ± 0.076 | 3.63 ± 0.089 | 3.55 ± 0.15
